According to patent publication US20190352428A1 (Seagen, published 2019):
Values belong to the binder of their own block, whether it stands above or below them.

Key:
CD19 [1] = target: CD19 (UniProt P15391); assay: cell-based or functional assay
CD19 [2] = target: CD19 (UniProt P15391); assay: competition FACS, Raji cells; unit and quantity not given
CD19 [3] = target: CD19 (UniProt P15391); assay: competition FACS, Raji cells; vs parent
CD19 [4] = target: T1, CD19 (UniProt P15391 20-556, limits assumed); assay: FACS competition, Raji cells; fold vs unmasked hBU12ec
T1 construct: whole, on cells; Target of hBU12
T1 sequence (looked up): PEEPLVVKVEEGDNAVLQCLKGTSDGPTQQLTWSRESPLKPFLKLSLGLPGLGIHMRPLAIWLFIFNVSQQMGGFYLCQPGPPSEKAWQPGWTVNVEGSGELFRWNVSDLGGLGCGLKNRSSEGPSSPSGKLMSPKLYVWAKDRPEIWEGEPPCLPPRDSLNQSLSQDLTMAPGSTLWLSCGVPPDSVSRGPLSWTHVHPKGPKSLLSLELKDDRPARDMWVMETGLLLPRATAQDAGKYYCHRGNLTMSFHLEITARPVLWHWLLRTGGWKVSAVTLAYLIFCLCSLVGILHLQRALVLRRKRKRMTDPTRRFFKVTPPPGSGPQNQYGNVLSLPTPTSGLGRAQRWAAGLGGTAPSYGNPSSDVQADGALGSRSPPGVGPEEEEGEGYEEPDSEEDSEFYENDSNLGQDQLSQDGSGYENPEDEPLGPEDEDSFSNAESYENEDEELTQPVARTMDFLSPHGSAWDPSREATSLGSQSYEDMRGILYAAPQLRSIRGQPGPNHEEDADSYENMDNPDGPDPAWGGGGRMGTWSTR
Description: (§1) To evaluate cell binding of masked antibodies, 2×10⁵ of indicated cells (Raji, Ramos, PC3, Daudi) were combined with fluorescently labeled parent antibody mixed with serial dilutions of competitor (masked antibody) in staining buffer (PBS, 2% FBS, 0.2% NaN3). Samples were incubated for 1 hour on ice and washed twice with ice-cold staining buffer. Labeled cells were examined by flow cytometry on a BD LSRII gated to exclude nonviable cells and analyzed using Flowing Software (Turku Centre for Biotechnology). The IC50 was calculated using GraphPad Prism 6.
(§2) Activity was tested using the hBU12 antibody, cAg-1, 1C1, HuMab-CD74-011, and an antibody against Antigen 2, designated hAg-2.

CD19 [5] = target: T1, CD19; assay: FACS competition, Raji cells; fold vs hBU12ec
Description: as §1
(§3) Four antibodies (hBU12 against CD19, anti-Antigen 1 antibody against Antigen 1 (cAg-1), 1C1 against EphA2 and HuMab CD74-011 against CD74) were tested using the coiled coil blocking domains. The antibody CD74 comprises a light chain (SEQ ID NO: 1) and a heavy chain (SEQ ID NO: 2). Sequences for A3B3, A4B4, CVel, antipO, and dHLX were N-terminally fused to the light and heavy chains of the antibodies. To test for binding, FACs-based competition assays were utilized to account for high concentrations of competitor necessary to displace the parent antibody and the results are listed in Tables 2-5. Other antibodies that can be conjugated to a coiled-coil peptide are SEQ ID NOs: 3-19. SEQ ID NO: 3 is the amino acid sequence of hBU12 heavy chain variable region, and SEQ ID NO: 4 is the amino acid sequence of hBU12 light chain variable region. […]

CD19 [6] = target: T1, CD19; assay: cell-based or functional assay
CD19 [7] = target: T1, CD19; assay: FACS competition with labeled parent hBU12, Raji cells
Description: as §1, §3

CD74 = target: T2, CD74 (UniProt P04233 1-296); assay: FACS competition, Daudi cells; fold vs unmasked HuMab-CD74-011
T2 construct: whole, on cells; Target of HuMab-CD74-011
T2 sequence (looked up): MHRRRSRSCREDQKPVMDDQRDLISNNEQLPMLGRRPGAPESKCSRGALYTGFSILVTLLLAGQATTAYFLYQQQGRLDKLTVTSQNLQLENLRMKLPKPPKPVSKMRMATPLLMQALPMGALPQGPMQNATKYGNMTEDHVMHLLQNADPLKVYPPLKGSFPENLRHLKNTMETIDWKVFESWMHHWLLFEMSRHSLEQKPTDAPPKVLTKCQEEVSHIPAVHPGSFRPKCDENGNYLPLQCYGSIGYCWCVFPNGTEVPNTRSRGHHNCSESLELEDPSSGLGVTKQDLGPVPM
Description: as §1, §2

B3: hBU12ec-1910(2) (antibody, V domains shown)
VH: QVQLQESGPGLVKPSQTLSLTCTVSGGSISTSGMGVGWIRQHPGKGLEWIGHIWWDDDKRYNPALKSRVTISVDTSKNQFSLKLSSVTAADTAVYYCARMELWSYYFDYWGQGTLVTVSS
VL: EIVLTQSPATLSLSPGERATLSCSASSSVSYMHWYQQKPGQAPRLLIYDTSKLASGIPARFSGSGSGTDFTLTISSLEPEDVAVYYCFQGSVYPFTFGQGTKLEIKR
modifications: PBD drug-linker on the engineered cysteine at position 239 of the heavy chain constant region
Cytotoxicity Data IC50 (ng/mL), Ramos cells (CD19 [6]): 0.1 ng/mL

B5: CVel HuMab-CD74-011 (antibody)
heavy: EACGASTSVDELQAEVDQLEDENYALKTKVAQLRKKVEKLGSIPVSLRSGQVQLVESGGGVVQPGRSLRLSCAASGFTFSSYGMHWVRQAPDKGLEWVAVIWYDGSNKYYADSVKGRFTISRDNSKNTLYLQMNSLRAEDTAVYYCARGGTLVRGAMYGTDVWGQGTTVTVSS
light: EACGASTTVAQLEEKVKTLRAENYELKSEVQRLEEQVAQLGSIPVSLRSGDIQMTQSPSSLSASVGDRVTITCRASQGISSWLAWYQQKPEKAPKSLIYAASSLQSGVPSRFSGSGSGTDFTLTISSLQPEDFATYYCQQYNSYPLTFGGGTKVEIK
notes: not restated for this antibody
fold decrease in binding (CD74): 26 fold

Now from value to binder, other results behind:

Binding Data (CD19 [2]): > 600
Binding Data (fold decrease per paragraph 159) (CD19 [3]): > 160 fold
B1: Cvel-1910(2) (antibody)
VH: EACGASTSVDELQAEVDQLEDENYALKTKVAQLRKKVEKLGSIPVSLRSGQVQLQESGPGLVKPSQTLSLTCTVSGGSISTSGMGVGWIRQHPGKGLEWIGHIWWDDDKRYNPALKSRVTISVDTSKNQFSLKLSSVTAADTAVYYCARMELWSYYFDYWGQGTLVTVSS
VL: EACGASTTVAQLEEKVKTLRAENYELKSEVQRLEEQVAQLGSIPVSLRSGEIVLTQSPATLSLSPGERATLSCSASSSVSYMHWYQQKPGQAPRLLIYDTSKLASGIPARFSGSGSGTDFTLTISSLEPEDVAVYYCFQGSVYPFTFGQGTKLEIKR
modifications: PBD drug-linker on the engineered cysteine at position 239 of the heavy chain constant region
Cytotoxicity Data Fold Change, Ramos cells (CD19 [1]): 1320 fold
Cytotoxicity Data IC50 (ng/mL), Ramos cells (CD19 [1]): 100 ng/mL

fold decrease in binding (CD19 [4]): > 300 fold
Fold Change (CD19 [5]): > 300 fold
B2: Cvel hBU12ec (antibody)
VH: B1 VH
VL: B1 VL
notes: the linker/protease site is not restated for this antibody; S239C constant region

IC50 (CD19 [7]): 3.6 nM
B4: hBU12ec (antibody, V domains shown)
VH: B3 VH
VL: B3 VL
notes: Anti-CD19 antibody; also called parent antibody
